Sequences and labels used below:
B1: glmS ribozyme (parent)
chain: AUAAAAGCGCCAGAACUACAGAAAUGUAGUUGACGAGGAGGAGGUUUAUCGAAUUUUCGGCGGAUGCCUCCAAA

Holding throughout (details): with glucosamine-6-phosphate
The variants in data set [1] derive from B1. Nature of the data set: self-cleavage kobs at 40 uM GlcN6P; higher = faster cleavage; RNA array. The method in brief:
(§1)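 Tiles bearing barcoded ribozyme variants, transcribed in situ by E. coli RNA polymerase on sequenced MiSeq chips, were imaged over ~14 h at 37 °C using a hybridised Cy3 probe. Glucosamine-6-phosphate was supplied at 40 μM to 10 mM in HEPES/KCl/Mg(OAc)2 buffer. kobs came from one- or two-exponential decay fits to normalised per-tile medians, and weighted Michaelis–Menten fits then provided kcat and KM.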

In data set [2] the parent is B1. In words: self-cleavage kobs at 10000 uM GlcN6P; higher = faster cleavage; RNA array. The method in brief:
as §1

Data set [3] covers variants of B1. In words: self-cleavage kobs at 160 uM GlcN6P; higher = faster cleavage; RNA array. The method in brief:
as §1

Data set [4] covers variants of B1. Nature of the data set: self-cleavage kobs at 640 uM GlcN6P; higher = faster cleavage; RNA array. The method in brief:
as §1

Variants of B1 are the subject of data set [5]. Nature of the data set: self-cleavage kobs at 2500 uM GlcN6P; higher = faster cleavage; RNA array. The method in brief: as §1

± gives the standard error. This sample holds only a part of the variants without activity. Where only a bound is given, the exact number is not on record here.

Take G38U G66A U69G: the “self-cleavage kobs at 40 uM GlcN6P” value in the data set with glucosamine-6-phosphate [1] was determined as 4.77e-05 ± 2e-05 s⁻¹. Also, in the data set with glucosamine-6-phosphate [2], the “self-cleavage kobs at 10000 uM GlcN6P” value was 4.02e-05 ± 1.6e-05 s⁻¹.
A6G G32U G37C A64U C68G C70G: in the data set with glucosamine-6-phosphate [1], the “self-cleavage kobs at 40 uM GlcN6P” value is less than 1e-05 s⁻¹.
With A15U C50G C61A, the “self-cleavage kobs at 40 uM GlcN6P” value in the data set with glucosamine-6-phosphate [1] was determined as 0.000142 ± 3e-05 s⁻¹. In addition, the “self-cleavage kobs at 10000 uM GlcN6P” value with glucosamine-6-phosphate [2] is 7.29e-05 ± 1.7e-05 s⁻¹.
Turning to G44A G60A, the “self-cleavage kobs at 40 uM GlcN6P” value with glucosamine-6-phosphate [1] was less than 1e-05 s⁻¹. In the data set with glucosamine-6-phosphate [3], the “self-cleavage kobs at 160 uM GlcN6P” value is less than 1e-05 s⁻¹. Besides, the “self-cleavage kobs at 640 uM GlcN6P” value in the data set with glucosamine-6-phosphate [4] is less than 1e-05 s⁻¹. Further, the “self-cleavage kobs at 2500 uM GlcN6P” value with glucosamine-6-phosphate [5] is less than 1e-05 s⁻¹. Moreover, in the data set with glucosamine-6-phosphate [2], the “self-cleavage kobs at 10000 uM GlcN6P” value is less than 1e-05 s⁻¹.
Take A6C C16A: the “self-cleavage kobs at 40 uM GlcN6P” value with glucosamine-6-phosphate [1] is less than 1e-05 s⁻¹. Besides, the “self-cleavage kobs at 160 uM GlcN6P” value with glucosamine-6-phosphate [3] was less than 1e-05 s⁻¹. Further, the “self-cleavage kobs at 640 uM GlcN6P” value with glucosamine-6-phosphate [4] was less than 1e-05 s⁻¹. Further, the “self-cleavage kobs at 2500 uM GlcN6P” value with glucosamine-6-phosphate [5] was less than 1e-05 s⁻¹.
As for U49G A53U U56A C67A C70A, in the data set with glucosamine-6-phosphate [1], the “self-cleavage kobs at 40 uM GlcN6P” value came out at 4.31e-05 ± 1.9e-05 s⁻¹. The “self-cleavage kobs at 2500 uM GlcN6P” value with glucosamine-6-phosphate [5] amounted to 0.000146 ± 2.4e-05 s⁻¹.
In the case of A48C G66C, the “self-cleavage kobs at 40 uM GlcN6P” value with glucosamine-6-phosphate [1] was less than 1e-05 s⁻¹. Further, the “self-cleavage kobs at 160 uM GlcN6P” value with glucosamine-6-phosphate [3] was less than 1e-05 s⁻¹. In the data set with glucosamine-6-phosphate [2], the “self-cleavage kobs at 10000 uM GlcN6P” value was 3.05e-05 ± 1.2e-05 s⁻¹.
Turning to G7U C8A A33U G43A U55A, in the data set with glucosamine-6-phosphate [1], the “self-cleavage kobs at 40 uM GlcN6P” value is less than 1e-05 s⁻¹. Moreover, the “self-cleavage kobs at 640 uM GlcN6P” value in the data set with glucosamine-6-phosphate [4] was less than 1e-05 s⁻¹. The “self-cleavage kobs at 2500 uM GlcN6P” value with glucosamine-6-phosphate [5] was less than 1e-05 s⁻¹. Moreover, the “self-cleavage kobs at 10000 uM GlcN6P” value with glucosamine-6-phosphate [2] is less than 1e-05 s⁻¹.
For the variant C68A U69C, the “self-cleavage kobs at 40 uM GlcN6P” value with glucosamine-6-phosphate [1] was less than 1e-05 s⁻¹. For the same variant, the “self-cleavage kobs at 10000 uM GlcN6P” value with glucosamine-6-phosphate [2] came to 4.51e-05 ± 1.6e-05 s⁻¹.
For G9C U45C U47A C67G, the “self-cleavage kobs at 40 uM GlcN6P” value with glucosamine-6-phosphate [1] is less than 1e-05 s⁻¹.
On to A6U A12G C16U G38A U54A C68A, for which the “self-cleavage kobs at 40 uM GlcN6P” value with glucosamine-6-phosphate [1] was 8.86e-05 ± 3.6e-05 s⁻¹. Besides, the “self-cleavage kobs at 640 uM GlcN6P” value with glucosamine-6-phosphate [4] was determined as 0.000335 ± 0.0001 s⁻¹. Also, the “self-cleavage kobs at 2500 uM GlcN6P” value in the data set with glucosamine-6-phosphate [5] is 0.000395 ± 0.00011 s⁻¹. Also, the “self-cleavage kobs at 10000 uM GlcN6P” value with glucosamine-6-phosphate [2] amounted to 8.53e-05 ± 1.8e-05 s⁻¹.
The corresponding values for C10U A12G G43U are less than 1e-05 s⁻¹, less than 1e-05 s⁻¹, less than 1e-05 s⁻¹ and less than 1e-05 s⁻¹.
For A39C G59C, the “self-cleavage kobs at 40 uM GlcN6P” value with glucosamine-6-phosphate [1] was less than 1e-05 s⁻¹. The “self-cleavage kobs at 160 uM GlcN6P” value with glucosamine-6-phosphate [3] was less than 1e-05 s⁻¹. Besides, the “self-cleavage kobs at 640 uM GlcN6P” value in the data set with glucosamine-6-phosphate [4] was less than 1e-05 s⁻¹. Moreover, the “self-cleavage kobs at 2500 uM GlcN6P” value with glucosamine-6-phosphate [5] was less than 1e-05 s⁻¹. In addition, in the data set with glucosamine-6-phosphate [2], the “self-cleavage kobs at 10000 uM GlcN6P” value was less than 1e-05 s⁻¹.
In the case of U57A U65C, the “self-cleavage kobs at 40 uM GlcN6P” value with glucosamine-6-phosphate [1] was less than 1e-05 s⁻¹. In addition, in the data set with glucosamine-6-phosphate [4], the “self-cleavage kobs at 640 uM GlcN6P” value is less than 1e-05 s⁻¹.
As to C11U G29U C50U C71G, in the data set with glucosamine-6-phosphate [1], the “self-cleavage kobs at 40 uM GlcN6P” value turned out to be 4.57e-05 ± 2.1e-05 s⁻¹.
Consider G13A A15C A33U G35A C58A, for which, in the data set with glucosamine-6-phosphate [1], the “self-cleavage kobs at 40 uM GlcN6P” value was less than 1e-05 s⁻¹.
As for G13C A33G A48C, in the data set with glucosamine-6-phosphate [1], the “self-cleavage kobs at 40 uM GlcN6P” value was less than 1e-05 s⁻¹. For the same variant, in the data set with glucosamine-6-phosphate [5], the “self-cleavage kobs at 2500 uM GlcN6P” value is less than 1e-05 s⁻¹.
Regarding C50G C71A, the “self-cleavage kobs at 40 uM GlcN6P” value with glucosamine-6-phosphate [1] was determined as 0.00184 ± 0.00076 s⁻¹. In the data set with glucosamine-6-phosphate [3], the “self-cleavage kobs at 160 uM GlcN6P” value was 0.000128 ± 1.3e-05 s⁻¹. The “self-cleavage kobs at 640 uM GlcN6P” value with glucosamine-6-phosphate [4] was 0.000215 ± 2e-05 s⁻¹. In addition, the “self-cleavage kobs at 2500 uM GlcN6P” value with glucosamine-6-phosphate [5] is 0.000153 ± 1.4e-05 s⁻¹.
Regarding G7C C11U G29A G40A A42U G62U, the “self-cleavage kobs at 40 uM GlcN6P” value in the data set with glucosamine-6-phosphate [1] was less than 1e-05 s⁻¹.
With U30A C50G U54A U69G, the “self-cleavage kobs at 40 uM GlcN6P” value in the data set with glucosamine-6-phosphate [1] came out at 5.79e-05 ± 1.6e-05 s⁻¹.
G35C A42U: in the data set with glucosamine-6-phosphate [1], the “self-cleavage kobs at 40 uM GlcN6P” value is less than 1e-05 s⁻¹. Further, in the data set with glucosamine-6-phosphate [3], the “self-cleavage kobs at 160 uM GlcN6P” value is less than 1e-05 s⁻¹. In the data set with glucosamine-6-phosphate [4], the “self-cleavage kobs at 640 uM GlcN6P” value is less than 1e-05 s⁻¹. Also, the “self-cleavage kobs at 2500 uM GlcN6P” value in the data set with glucosamine-6-phosphate [5] was less than 1e-05 s⁻¹.
In the case of C8G U65C, the “self-cleavage kobs at 40 uM GlcN6P” value with glucosamine-6-phosphate [1] is less than 1e-05 s⁻¹. Also, the “self-cleavage kobs at 160 uM GlcN6P” value with glucosamine-6-phosphate [3] was less than 1e-05 s⁻¹. The “self-cleavage kobs at 640 uM GlcN6P” value with glucosamine-6-phosphate [4] is less than 1e-05 s⁻¹. Moreover, in the data set with glucosamine-6-phosphate [5], the “self-cleavage kobs at 2500 uM GlcN6P” value was less than 1e-05 s⁻¹.
C16U G35A: the “self-cleavage kobs at 40 uM GlcN6P” value with glucosamine-6-phosphate [1] is less than 1e-05 s⁻¹. Moreover, in the data set with glucosamine-6-phosphate [3], the “self-cleavage kobs at 160 uM GlcN6P” value is less than 1e-05 s⁻¹. Moreover, the “self-cleavage kobs at 640 uM GlcN6P” value with glucosamine-6-phosphate [4] was less than 1e-05 s⁻¹.
Take C11G A15C: the “self-cleavage kobs at 40 uM GlcN6P” value with glucosamine-6-phosphate [1] was less than 1e-05 s⁻¹. Further, the “self-cleavage kobs at 160 uM GlcN6P” value in the data set with glucosamine-6-phosphate [3] was less than 1e-05 s⁻¹. In addition, the “self-cleavage kobs at 640 uM GlcN6P” value in the data set with glucosamine-6-phosphate [4] was less than 1e-05 s⁻¹. Further, in the data set with glucosamine-6-phosphate [5], the “self-cleavage kobs at 2500 uM GlcN6P” value was less than 1e-05 s⁻¹.

These data come from the supplement of paper PMC7125110.
